Source: US20140309404A1

What was measured:
human BMP-6 (human) [1] = biological target: human BMP-6 (human) (UniProt P22004); assay: SPR (BIAcore), BMP-6 immobilised on CM4 chip, antibody injected, 37 C
human BMP-7 (human) [2] = biological target: human BMP-7 (human) (UniProt P18075); assay: SPR (BIAcore), BMP-7 immobilised on CM4 chip, antibody injected, 37 C
BMP-9 = assay: cell-based or functional assay
human BMP-6 (human) [3] = biological target: human BMP-6 (human) (UniProt P22004); assay: cell-based or functional assay
BMP-4 = assay: cell-based or functional assay
human BMP-7 (human) [4] = biological target: human BMP-7 (human) (UniProt P18075); assay: cell-based or functional assay
human BMP-5 (human) = human BMP-5 (human) (UniProt P22003); assay: cell-based or functional assay
Chain of human BMP-5 (human) (P22003 317-454 limits assumed): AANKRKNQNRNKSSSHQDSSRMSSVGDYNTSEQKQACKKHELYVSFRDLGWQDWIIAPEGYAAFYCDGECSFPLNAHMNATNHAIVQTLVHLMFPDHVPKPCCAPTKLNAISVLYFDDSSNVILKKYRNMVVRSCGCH

BMP-10 = assay: cell-based or functional assay
BMP-2 = assay: cell-based or functional assay

Chain of human BMP-6 (human) (P22004 382-513 limits assumed): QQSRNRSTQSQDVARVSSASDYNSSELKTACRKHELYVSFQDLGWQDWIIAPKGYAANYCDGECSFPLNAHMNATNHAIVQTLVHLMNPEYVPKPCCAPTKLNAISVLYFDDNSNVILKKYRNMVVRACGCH
Chain of human BMP-7 (human) (P18075 293-431 limits assumed): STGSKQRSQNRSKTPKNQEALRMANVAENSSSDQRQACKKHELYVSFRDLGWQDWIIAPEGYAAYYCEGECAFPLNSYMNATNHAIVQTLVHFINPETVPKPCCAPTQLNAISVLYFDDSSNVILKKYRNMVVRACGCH

Kd (human BMP-6 (human) [1])	koff (human BMP-6 (human) [1])	kon (human BMP-6 (human) [1])	Kd (human BMP-7 (human) [2])	koff (human BMP-7 (human) [2])	kon (human BMP-7 (human) [2])	Mean % Inh at 1000 nM, BMP-9 induced Hep Luc Assay (BMP-9)	Geometric Mean IC50 (nM), BMP-6 induced Hep Luc Assay (hepcidin promoter luciferase, HepProm Luc cells) (human BMP-6 (human) [3])	Mean % Inh at 1000 nM, BMP-4 induced Hep Luc Assay (BMP-4)	Mean % Inh at 1000 nM, BMP-7 induced Hep Luc Assay (human BMP-7 (human) [4])	Mean % Inh at 1000 nM, BMP-5 induced Hep Luc Assay (human BMP-5 (human))	Mean % Inh at 1000 nM, BMP-10 induced Hep Luc Assay (BMP-10)	Mean % Inh at 1000 nM, BMP-2 induced Hep Luc Assay (BMP-2)	Substance
1 nM	0.000187 s⁻¹	187000 M⁻¹ s⁻¹	23.2 nM	0.000793 s⁻¹	34200 M⁻¹ s⁻¹	-76.1%	22.1 nM	-65.4%	54.2%	-43.5%	-87.2%	-50.6%	MAB507 (antibody)
–	–	–	–	–	–	2.8%	–	4.2%	-1.7%	2.5%	5.4%	7.8%	human IgGPAA4 control (antibody)
